How the values were obtained:
Assay in all cases: ELISA
Fc-fused ECD of VEGFR2 = Fc-fused ECD of VEGFR2 (Homo sapiens (assumed), UniProt P35968)
[1] = target: Fc-fused ECD of FGFR3 (IIIc) (Homo sapiens (assumed), UniProt P22607)
HGFR/c-Met ECD-Fc = HGFR/c-Met ECD-Fc (Homo sapiens (assumed), UniProt P08581)
Fc-fused ECD of IGF-IR = Fc-fused ECD of IGF-IR (Homo sapiens (assumed), UniProt P08069)
Fc-fused ECD of PDGFRβ = Fc-fused ECD of PDGFRβ (Homo sapiens (assumed), UniProt P09619)
Fc-fused ECD of HER3 = Fc-fused ECD of HER3 (Homo sapiens (assumed), UniProt P21860)
Fc-fused ECD of HER4 = Fc-fused ECD of HER4 (Homo sapiens (assumed), UniProt Q15303)
Fc-fused ECD of EGFR = Fc-fused ECD of EGFR (Homo sapiens (assumed), UniProt P00533)

Measured: binding result

Fc-fused ECD of VEGFR2, sequence (P35968 20-764): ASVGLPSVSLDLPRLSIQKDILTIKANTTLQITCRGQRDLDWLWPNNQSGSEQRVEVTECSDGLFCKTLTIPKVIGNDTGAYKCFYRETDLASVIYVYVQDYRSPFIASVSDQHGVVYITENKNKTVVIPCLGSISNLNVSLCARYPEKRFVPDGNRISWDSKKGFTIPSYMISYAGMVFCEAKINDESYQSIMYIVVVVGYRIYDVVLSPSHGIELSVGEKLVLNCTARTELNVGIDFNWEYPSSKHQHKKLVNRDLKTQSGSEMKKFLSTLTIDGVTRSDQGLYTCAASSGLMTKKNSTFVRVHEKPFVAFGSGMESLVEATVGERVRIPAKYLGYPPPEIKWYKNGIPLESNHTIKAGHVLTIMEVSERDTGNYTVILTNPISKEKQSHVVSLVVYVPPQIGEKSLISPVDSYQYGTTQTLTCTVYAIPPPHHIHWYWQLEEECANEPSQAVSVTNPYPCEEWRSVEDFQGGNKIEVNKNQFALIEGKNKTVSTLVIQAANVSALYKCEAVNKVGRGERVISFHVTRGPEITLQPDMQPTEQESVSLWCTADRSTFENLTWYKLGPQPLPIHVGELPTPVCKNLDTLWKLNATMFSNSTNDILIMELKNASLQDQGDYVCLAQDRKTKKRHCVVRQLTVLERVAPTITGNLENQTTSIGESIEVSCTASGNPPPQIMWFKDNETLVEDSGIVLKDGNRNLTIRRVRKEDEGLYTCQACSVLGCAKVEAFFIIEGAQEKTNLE
Fc-fused ECD of FGFR3 (IIIc), sequence (P22607 23-375): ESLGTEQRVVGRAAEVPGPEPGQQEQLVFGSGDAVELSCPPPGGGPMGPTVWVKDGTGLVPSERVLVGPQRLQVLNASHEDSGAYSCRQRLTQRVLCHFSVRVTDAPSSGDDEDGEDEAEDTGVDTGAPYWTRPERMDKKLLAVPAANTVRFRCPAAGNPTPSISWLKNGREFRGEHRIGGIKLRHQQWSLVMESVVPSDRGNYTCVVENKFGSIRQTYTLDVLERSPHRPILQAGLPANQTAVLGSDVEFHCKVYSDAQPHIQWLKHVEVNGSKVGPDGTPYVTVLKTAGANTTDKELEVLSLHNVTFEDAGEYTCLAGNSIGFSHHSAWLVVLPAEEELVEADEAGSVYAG
Fc-fused ECD of IGF-IR, sequence (P08069 741-935): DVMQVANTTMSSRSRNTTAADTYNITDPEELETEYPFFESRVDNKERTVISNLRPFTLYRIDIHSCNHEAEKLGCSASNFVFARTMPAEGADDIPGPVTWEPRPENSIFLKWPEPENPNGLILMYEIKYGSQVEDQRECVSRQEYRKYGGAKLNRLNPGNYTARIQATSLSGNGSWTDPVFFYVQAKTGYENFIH
Fc-fused ECD of HER3, sequence (P21860 20-643): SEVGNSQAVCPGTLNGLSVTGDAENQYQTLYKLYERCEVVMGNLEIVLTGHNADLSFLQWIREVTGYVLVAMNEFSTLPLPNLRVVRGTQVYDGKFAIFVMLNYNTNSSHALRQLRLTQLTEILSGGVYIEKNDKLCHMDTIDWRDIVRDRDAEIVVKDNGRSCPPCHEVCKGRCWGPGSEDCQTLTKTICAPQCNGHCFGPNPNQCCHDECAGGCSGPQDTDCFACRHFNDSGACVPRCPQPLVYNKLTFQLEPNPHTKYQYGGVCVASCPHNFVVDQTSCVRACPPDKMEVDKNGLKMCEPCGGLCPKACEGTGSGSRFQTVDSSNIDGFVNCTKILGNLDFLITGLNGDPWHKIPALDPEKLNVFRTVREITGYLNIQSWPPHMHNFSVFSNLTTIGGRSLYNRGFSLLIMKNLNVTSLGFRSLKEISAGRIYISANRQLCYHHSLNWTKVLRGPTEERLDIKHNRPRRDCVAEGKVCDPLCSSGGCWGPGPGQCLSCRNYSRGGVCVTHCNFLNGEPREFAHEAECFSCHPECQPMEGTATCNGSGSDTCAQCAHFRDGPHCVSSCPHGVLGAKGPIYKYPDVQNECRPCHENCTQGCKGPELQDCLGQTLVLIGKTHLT
HGFR/c-Met ECD-Fc, sequence (P08581 25-932): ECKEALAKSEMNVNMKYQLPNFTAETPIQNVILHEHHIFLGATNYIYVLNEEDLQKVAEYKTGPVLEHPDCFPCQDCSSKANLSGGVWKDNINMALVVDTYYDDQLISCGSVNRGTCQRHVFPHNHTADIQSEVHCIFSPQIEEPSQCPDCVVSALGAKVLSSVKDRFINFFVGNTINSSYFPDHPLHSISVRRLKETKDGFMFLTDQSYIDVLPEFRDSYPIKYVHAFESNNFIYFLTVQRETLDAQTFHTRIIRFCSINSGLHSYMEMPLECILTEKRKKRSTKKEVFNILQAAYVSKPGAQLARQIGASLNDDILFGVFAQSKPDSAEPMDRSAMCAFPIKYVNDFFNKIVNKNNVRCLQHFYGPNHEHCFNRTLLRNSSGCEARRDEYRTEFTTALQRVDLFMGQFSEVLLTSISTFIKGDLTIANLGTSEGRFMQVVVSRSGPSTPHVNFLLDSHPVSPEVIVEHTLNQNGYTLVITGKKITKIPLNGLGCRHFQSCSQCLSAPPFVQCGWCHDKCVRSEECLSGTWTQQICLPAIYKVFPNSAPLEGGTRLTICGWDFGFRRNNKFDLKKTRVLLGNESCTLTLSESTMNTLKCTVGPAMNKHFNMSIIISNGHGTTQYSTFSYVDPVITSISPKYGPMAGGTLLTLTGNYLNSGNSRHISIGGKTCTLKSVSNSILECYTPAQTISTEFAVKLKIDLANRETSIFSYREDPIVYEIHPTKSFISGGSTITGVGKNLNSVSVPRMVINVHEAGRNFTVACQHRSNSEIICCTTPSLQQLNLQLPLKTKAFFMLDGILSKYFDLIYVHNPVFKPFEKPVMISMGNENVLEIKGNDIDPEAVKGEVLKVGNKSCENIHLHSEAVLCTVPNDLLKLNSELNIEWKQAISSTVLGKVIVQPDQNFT
Fc-fused ECD of PDGFRβ, sequence (P09619 33-532): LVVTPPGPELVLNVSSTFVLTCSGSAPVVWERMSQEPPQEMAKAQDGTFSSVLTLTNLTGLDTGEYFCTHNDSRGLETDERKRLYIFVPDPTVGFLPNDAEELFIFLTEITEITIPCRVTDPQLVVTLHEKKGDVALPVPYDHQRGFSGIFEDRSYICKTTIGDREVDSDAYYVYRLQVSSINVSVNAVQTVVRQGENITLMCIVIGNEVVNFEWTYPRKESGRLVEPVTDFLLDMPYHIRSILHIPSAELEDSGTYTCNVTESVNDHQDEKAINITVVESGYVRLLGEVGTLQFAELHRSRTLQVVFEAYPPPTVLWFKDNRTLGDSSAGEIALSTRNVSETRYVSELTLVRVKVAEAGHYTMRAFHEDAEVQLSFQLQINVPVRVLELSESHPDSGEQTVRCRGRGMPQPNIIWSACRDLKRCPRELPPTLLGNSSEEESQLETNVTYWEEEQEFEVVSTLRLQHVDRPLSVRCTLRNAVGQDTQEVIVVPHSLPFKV
Fc-fused ECD of HER4, sequence (Q15303 26-651): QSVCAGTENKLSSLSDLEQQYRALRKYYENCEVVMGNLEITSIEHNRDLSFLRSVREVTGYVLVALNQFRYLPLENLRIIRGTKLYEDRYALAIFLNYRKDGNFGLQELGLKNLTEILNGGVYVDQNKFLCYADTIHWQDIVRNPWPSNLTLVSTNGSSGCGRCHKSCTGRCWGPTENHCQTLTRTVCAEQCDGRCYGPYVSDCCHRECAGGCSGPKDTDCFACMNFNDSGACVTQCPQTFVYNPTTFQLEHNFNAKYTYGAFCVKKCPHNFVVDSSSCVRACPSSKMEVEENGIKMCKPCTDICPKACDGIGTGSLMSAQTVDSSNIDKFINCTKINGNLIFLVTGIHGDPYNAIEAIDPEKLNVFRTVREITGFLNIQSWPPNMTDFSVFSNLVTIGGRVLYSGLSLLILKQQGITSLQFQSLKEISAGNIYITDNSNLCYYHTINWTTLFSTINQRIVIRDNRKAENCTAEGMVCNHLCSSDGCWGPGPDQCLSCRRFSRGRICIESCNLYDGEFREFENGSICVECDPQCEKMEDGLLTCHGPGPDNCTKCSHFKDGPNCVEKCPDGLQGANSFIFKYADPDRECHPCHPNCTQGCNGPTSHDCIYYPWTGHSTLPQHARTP

B1: AH06, variant of hu4D5 from library LN02, IgG format (antibody, V domains shown)
VH: EVQLVESGGGLVQPGGSLRLSCAASGFNIKDTYIHWVRQAPGKGLEWVARIYPTNGYTRYADSVKGRFTISADTSKNTAYLQMNSLRAEDTAVYYCSRWGGWGFYAFALWGQGTLVTVSS
VL: not shown
no binding (tested: 30 nM): all assays above
